Assay [1] deals with T1, ITGA2 protein on the surface of human tumor cells (HuCCT1, A431) (human, UniProt P17301 30-1181).
T1 sequence (looked up): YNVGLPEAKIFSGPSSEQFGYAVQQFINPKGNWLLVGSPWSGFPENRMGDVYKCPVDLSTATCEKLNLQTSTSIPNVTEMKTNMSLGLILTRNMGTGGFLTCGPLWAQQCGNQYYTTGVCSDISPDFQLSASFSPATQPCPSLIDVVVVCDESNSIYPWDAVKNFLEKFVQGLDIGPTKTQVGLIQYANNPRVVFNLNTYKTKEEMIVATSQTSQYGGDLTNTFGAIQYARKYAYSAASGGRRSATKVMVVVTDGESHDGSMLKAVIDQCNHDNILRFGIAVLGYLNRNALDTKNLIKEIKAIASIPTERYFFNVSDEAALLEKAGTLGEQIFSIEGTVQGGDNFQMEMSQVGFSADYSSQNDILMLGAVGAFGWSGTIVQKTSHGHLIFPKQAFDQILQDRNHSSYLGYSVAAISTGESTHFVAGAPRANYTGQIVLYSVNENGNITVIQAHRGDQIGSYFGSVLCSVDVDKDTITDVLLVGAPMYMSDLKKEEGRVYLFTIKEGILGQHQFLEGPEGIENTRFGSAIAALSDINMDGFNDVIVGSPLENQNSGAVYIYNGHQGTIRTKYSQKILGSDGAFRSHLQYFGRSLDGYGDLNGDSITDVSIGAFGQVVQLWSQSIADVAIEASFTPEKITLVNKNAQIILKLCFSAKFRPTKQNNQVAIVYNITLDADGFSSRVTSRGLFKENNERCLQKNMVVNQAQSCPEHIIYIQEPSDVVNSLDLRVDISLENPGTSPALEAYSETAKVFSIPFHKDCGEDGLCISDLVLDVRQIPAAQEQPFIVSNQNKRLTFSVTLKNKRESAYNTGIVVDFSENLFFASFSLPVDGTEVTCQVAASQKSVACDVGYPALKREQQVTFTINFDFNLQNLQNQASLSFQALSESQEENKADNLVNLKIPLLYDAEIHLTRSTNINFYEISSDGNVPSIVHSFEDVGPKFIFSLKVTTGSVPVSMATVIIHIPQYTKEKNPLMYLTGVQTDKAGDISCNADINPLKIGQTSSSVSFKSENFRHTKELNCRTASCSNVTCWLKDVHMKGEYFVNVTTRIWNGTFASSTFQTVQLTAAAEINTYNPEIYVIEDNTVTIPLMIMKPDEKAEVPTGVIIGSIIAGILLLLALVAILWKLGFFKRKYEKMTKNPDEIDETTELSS
Put plainly: cell-based or functional assay.

The target of assay [2] is T1, ITGA2 protein on the surface of human …. Put plainly: flow cytometry on HuCCT1 cells, goat anti-human IgG (H+L) secondary antibody. In general terms: In flow cytometry, cells or beads pass a laser one at a time.
The target in assay [3] is T2, ITGA2-His (human, UniProt P17301 30-1132, limits assumed).
T2 construct: also called ITGA2 protein; not shown: His tag
T2 sequence (looked up): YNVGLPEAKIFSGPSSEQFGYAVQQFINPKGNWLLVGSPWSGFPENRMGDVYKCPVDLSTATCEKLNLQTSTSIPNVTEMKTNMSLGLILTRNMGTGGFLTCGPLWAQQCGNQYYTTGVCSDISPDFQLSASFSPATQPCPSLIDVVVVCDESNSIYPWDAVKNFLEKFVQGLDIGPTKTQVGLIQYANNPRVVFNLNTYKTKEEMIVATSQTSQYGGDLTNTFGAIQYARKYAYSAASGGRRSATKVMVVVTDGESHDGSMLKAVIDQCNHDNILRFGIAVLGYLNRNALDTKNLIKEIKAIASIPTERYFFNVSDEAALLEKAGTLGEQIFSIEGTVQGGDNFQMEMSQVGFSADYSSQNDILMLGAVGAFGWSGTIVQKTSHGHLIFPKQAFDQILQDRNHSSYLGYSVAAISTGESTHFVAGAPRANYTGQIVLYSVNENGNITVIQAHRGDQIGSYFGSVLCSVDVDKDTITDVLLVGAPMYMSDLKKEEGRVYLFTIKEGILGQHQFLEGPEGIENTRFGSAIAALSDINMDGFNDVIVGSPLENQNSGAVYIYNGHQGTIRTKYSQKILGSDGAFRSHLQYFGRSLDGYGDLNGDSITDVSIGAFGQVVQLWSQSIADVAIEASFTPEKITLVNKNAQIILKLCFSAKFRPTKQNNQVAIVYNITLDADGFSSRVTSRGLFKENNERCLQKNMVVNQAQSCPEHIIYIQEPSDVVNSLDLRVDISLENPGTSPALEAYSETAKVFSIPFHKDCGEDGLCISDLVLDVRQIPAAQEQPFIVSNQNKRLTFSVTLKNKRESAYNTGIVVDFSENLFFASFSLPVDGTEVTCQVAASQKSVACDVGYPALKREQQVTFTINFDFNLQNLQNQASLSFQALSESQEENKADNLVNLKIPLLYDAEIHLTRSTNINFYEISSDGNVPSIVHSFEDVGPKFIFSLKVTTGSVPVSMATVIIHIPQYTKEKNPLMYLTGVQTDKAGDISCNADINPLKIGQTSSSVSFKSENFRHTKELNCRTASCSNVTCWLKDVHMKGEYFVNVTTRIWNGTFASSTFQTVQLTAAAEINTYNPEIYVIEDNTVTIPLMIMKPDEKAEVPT
Put plainly: ELISA, plate coated with 2 ug/mL ITGA2-His, anti-human IgG-Fc-HRP detection. (An ELISA detects its analyte on a solid surface through an enzyme-linked reagent.)

B1: FS002-A15-vc-MMAE (antibody, human IgG1, kappa, V domains shown)
VH: RLQLQESGPGLVKPSQTLSLTCTVSGGSISSGGYYWSWIRQHPGKGLEWIGYIYYSGSTYYNPSLKSRVTISVDTSKNQFSLKLSSVTAADTAVYYCARATIYGYFDYWGQGTLVTVSS
VL: EIVLTQSPATLPLSPGERATLSCRASQSVGFYLAWYQQKPGQPPRLLFYDASKRATGIPARFSASGSGTDFTLTISGLEPEDFAVYYCQHRISWPLTFGQGTKVEVKR
modifications: vc-MMAE (mc-vc-PAB-MMAE) linker-payload conjugated after TCEP reduction, DAR 2.9 for the whole antibody; sites not stated
Consider B1, for which, in assay [1], the “A431 cell killing IC50” value was 0.2 nM and the “HuCC-T1 cell killing IC50” value was 0.2 nM.

B2: Humanized antibody FS002-C11 (antibody, human IgG1, kappa, V domains shown)
VH: RLQLQESGPRLVKPSETLSLTCSVSGGSISSRNHYWAWIRQPPGKGLEWIGYIYYSGSTYYNPSLKSRVTISVDTSKNQFSLKLSSVTAADTAVYYCARVGLLLRDFDYWGQGTLVTVSS
VL: DIQMIQSPSSVSASVGDRVTITCRASQGISNSLAWYQHKPGTTPKLLIYAASSLQGGVPSRFSGSSSETDFTLTISSLQPEDFATYYCQQANSFPITFGQGTRLDIKR
notes: IgG1 heavy chain, kappa light chain
For B2, the EC50 (commonly the midpoint of the concentration-response curve) was determined as 0.747 nM in assay [2] and 0.035 nM in assay [3].

B3: FS002-A1-vc-MMAE (antibody, V domains shown)
VH: QVQLVQSGAEVKKPGASVKVSCKASGYTFTSYYMHWVRQAPGQGLEWMGIINPSGGSTSYAQKFQGRVTMTRDTSTSTVYMELSSLRSEDTAVYYCARDISGSYQTDAFDIWGQGTMVTVSS
VL: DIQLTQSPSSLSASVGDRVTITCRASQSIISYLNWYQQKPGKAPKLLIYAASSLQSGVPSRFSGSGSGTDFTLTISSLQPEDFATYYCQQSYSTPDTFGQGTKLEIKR
modifications: vc-MMAE (mc-vc-PAB-MMAE) linker-payload conjugated after TCEP reduction, DAR 3.4 for the whole antibody; sites not stated
Regarding B3, in assay [1], the “A431 cell killing IC50” value came out at 0.14 nM and the “HuCC-T1 cell killing IC50” value was determined as 0.14 nM.

B4: FS002-A36-vc-MMAE (antibody, human IgG1, kappa, V domains shown)
VH: QVQLQESGPGLVKPSQTLSLTCTVSGGSISSGGYYWSWIRQHPGKGLEWIGYIYYSGSTYYNPSLKSRVTISVDTSKNQFSLKLSSVTAADTAVYYCARVRLLGGGFDIWGQGTTVTVSS
VL: EIVLTQSPATLSLSPGERATLSCRASQSVSTYLAWYQQKPGQAPRLLIYDTSIRATGIPARFSGSGSGTDFTLTISSLEPEDFAVYYCQQRSNWPLTFGGGTKVEIKR
modifications: vc-MMAE (mc-vc-PAB-MMAE) linker-payload conjugated after TCEP reduction, DAR 3.8 for the whole antibody; sites not stated
B4: in assay [1], the “A431 cell killing IC50” value was determined as 0.02 nM and the “HuCC-T1 cell killing IC50” value stood at 0.08 nM.

B5: Humanized antibody FS002-A66 (antibody, human IgG1, kappa, V domains shown)
VH: EVQLVESGGGVVQPGRSLRLSCAASGFTFSSYAMHWVRQAPGKGLEWVAVISYDGSNKYYVDSVKGRFTISRDNSKNTLYLQMNSLRAEDTAVYYCARDRITYLDYYYYGMDVWGQGTTVTVSS
VL: EIVLTQSPAILSLSPGERATLSCRASQSVSEYLAWYQQKPGQAPRLLIYDISNRATGIPARFSGSGSETDFTLTISSLEPEDFAVYYCQQRRTWPLTFGPGTKVDIKR
notes: as for B2
Take B5: the concentration for a half-maximal effect (EC50) in assay [2] is 2.35 nM; in assay [3], 0.031 nM.

B6: Humanized antibody FS002-A36 (antibody, human IgG1, kappa, V domains shown)
VH: QVQLQESGPGLVKPSQTLSLTCTVSGGSISSGGYYWSWIRQHPGKGLEWIGYIYYSGSTYYNPSLKSRVTISVDTSKNQFSLKLSSVTAADTAVYYCARVRLLGGGFDIWGQGTTVTVSS
VL: EIVLTQSPATLSLSPGERATLSCRASQSVSTYLAWYQQKPGQAPRLLIYDTSIRATGIPARFSGSGSGTDFTLTISSLEPEDFAVYYCQQRSNWPLTFGGGTKVEIKR
notes: as for B2
With B6, the results for the EC50 in assay [2] and in assay [3] were 0.793 nM and 0.022 nM, respectively.

B7: Humanized antibody FS002-A5 (antibody, human IgG1, kappa, V domains shown)
VH: QVQLQDSGPGLVKPSQTLSLTCTVSGGSISSGGYYWSWIRQHPGKGLEWIGYIYYSGSTYYNPSLKSRVTISVDTSKNQFSLKLSSVTAADTAVYYCARVPVPLVGAFDIWGQGTMVTVSS
VL: EIVLTQSPATLSLSPGERATLSCRASQSVSSNLGWYQQKPGQAPSLLIYGASNRATGIPARFSGSGSGTDFTLTISSLEPEDFAVYYCQQRDTWPLTFGGGTKVEIKR
notes: as for B2
In the case of B7, the EC50 amounted to 1.27 nM in assay [2] and 0.032 nM in assay [3].

B8: Humanized antibody FS002-B27 (antibody, human IgG1, kappa, V domains shown)
VH: QVQLVQSGAEVKKPGSSVKVSCKASGGTFSSYAISWVRQAPGQGLEWMGRIIPILGIANYAQKFQGRVTITADKSTSTAYMELSSLRSEDTAVYYCARAEGSSWYYFDYWGQGTLVTVSS
VL: NIQLTQSPSSVSASVGDRVTITCRASQGFSRWLAWYQQKPGKAPKLLIYGASSLQSGVPSRFSGSGSGTDFTLTISSLQPEDFATYYCQQANSFPLTFGGGTKLEIKR
notes: as for B2
In the case of B8, the EC50 is 2.75 nM in assay [2] and 0.571 nM in assay [3].

B9: Humanized antibody FS002-A72 (antibody, human IgG1, kappa, V domains shown)
VH: QVQLVDSGGGLVQPGGSLRLSCVASGFAFSNYEMNWVRQAPGKGLEWVSYISSSSSYTNYADSVKGRFTISRDNAKNSLYLQMNSLRAEDTAVYYCARAQVRDAFDIWGQGTTVTVSS
VL: IVMTQSPVTLSVSPGDSATLSCRASQSVDKNLAWYQQKTGQAPRLLIYGAATRATGIPARFSGSGSGTEFTLTISSLRSEDFAVYYCQQYRNWPWTFGLGTKVEIKR
notes: as for B2
For the molecule B9, the EC50 in assay [2] was determined as 17.2 nM; in assay [3], 0.259 nM.

Values taken from EP4545563A1 (Foreseen Technology (Beijing) Co., Ltd., dated 2024).
